33 molecules from patent US20210355194A1 (TWIST BIOSCIENCE, published 2021) can be followed below.

This assay deals with CV S-protein construct 6 trimer TP31001F (SARS-CoV-2, UniProt P0DTC2 14-1208). Briefly: SPR. In general terms: Surface plasmon resonance follows binding to a sensor surface in real time, without labels.

For orientation: Kd means a measure of binding affinity in units of concentration. Low values mean a tighter complex, high ones a looser complex.

B1: variant 6-25 (Fc fusion)
VHH: EVQLVESGGGLVQPGGSLRLSCAASGLTFGTYTMGWFRQAPGKEREFVAAISRFGSTYYADSVKGRFTISADNSKNTAYLQMNSLKPEDTAVYYCARGGDYDFWSVDYMDVWGQGTLVTVSS
B1 gave an equilibrium dissociation constant (Kd) of 5.8 nM.

B2: variant 6-39 (Fc fusion)
VHH: EVQLVESGGGLVQPGGSLRLSCAASGFTFSPSWMGWFRQAPGKEREFVAAISWSGGSTAYADSVKGRFTISADNSKNTAYLQMNSLKPEDTAVYYCHGLGEGDPYGDYEGYFDLWGQGTLVTVSS
For B2, the affinity, expressed as Kd, was 0.1 nM.

B3: variant 6-34 (Fc fusion)
VHH: EVQLVESGGGLVQPGGSLRLSCAASGSAFRSNAMGWFRQAPGKEREFVAHISWSSKSTYYADSVKGRFTISADNSKNTAYLQMNSLKPEDTAVYYCATYCSSTSCFDYWGQGTLVTVSS
For the molecule B3, the affinity, expressed as Kd, was 0.7 nM.

B4: variant 6-18 (Fc fusion)
VHH: EVQLVESGGGLVQPGGSLRLSCAASGLTFRNYAMGWFRQAPGKEREFIAGMMWSGGTTTYADSVKGRFTISADNSKNTAYLQMNSLKPEDTAVYYCAREGYYYDSSGYLNYFDYWGQGTLVTVSS
B4 came in with a Kd of 5.3 nM.

B5: variant 6-5 (Fc fusion)
VHH: EVQLVESGGGLVQPGGSLRLSCAASGRTFTMGWFRQAPGKEREFVASTNSAGSTNYADSVNGRFTISADNSKNTAYLQMNSLKPEDTAVYYCTTVDQYFDYWGQGTLVTVSS
Consider B5, for which the Kd stood at 0.8 nM.

B6: variant 6-16 (Fc fusion)
VHH: EVQLVESGGGLVQPGGSLRLSCAASGFTFDDAAMGWFRQAPGKEREFVAHISWSGGSTYYADSVKGRFTISADNSKNTAYLQMNSLKPEDTAVYYCATFGATVTATNDAFDIWGQGTLVTVSS
In turn, B6 showed a Kd of 2.2 nM.

B7: variant 6-14 (Fc fusion)
VHH: EVQLVESGGGLVQPGGSLRLSCAASGITFRFKAMGWFRQAPGKEREFVAAVSWDGRNTYYADSVKGRFTISADNSKNTAYLQMNSLKPEDTAVYYCASDYYYMDVWGQGTLVTVSS
Consider B7, for which the dissociation constant (Kd) is 466 nM.

B8: variant 6-12 (Fc fusion)
VHH: EVQLVESGGGLVQPGGSLRLSCAASGSTYTTYSMGWFRQAPGKEREFVAAISGSENVTSYADSVKGRFTISADNSKNTAYLQMNSLKPEDTAVYYCARVDDYMDVWGQGTLVTVSS
In turn, B8 returned a Kd of 1.4 nM.

B9: variant 6-42 (Fc fusion)
VHH: EVQLVESGGGLVQPGGSLRLSCAASGDTYGSYWMGWFRQAPGKEREFVAVITSGGSTNYADSVKGRFTISADNSKNTAYLQMNSLKPEDTAVYYCTHVQNSYYYAMDVWGQGTLVTVSS
Molecule B9 yielded a Kd of 7.8 nM.

B10: variant 6-33 (Fc fusion)
VHH: EVQLVESGGGLVQPGGSLRLSCAASGTFQRINHMGWFRQAPGKEREFVATINTGGQPNYADSVKGRFTISADNSKNTAYLQMNSLKPEDTAVYYCASLIAAQDYYFDYWGQGTLVTVSS
On to B10, for which the Kd was found to be 0.2 nM.

B11: variant 6-15 (Fc fusion)
VHH: EVQLVESGGGLVQPGGSLRLSCAASGSTVLINAMGWFRQAPGKEREFVAAVRWSDDYTYYADSVKGRFTISADNSKNTAYLQMNSLKPEDTAVYYCAKEGRAGSLDYWGQGTLVTVSS
Take B11: the Kd was 9050 nM.

B12: variant 6-13 (Fc fusion)
VHH: EVQLVESGGGLVQPGGSLRLSCAASGLTFNDYAMGWFRQAPGKEREFVAHIPRSTYSPYYADSVKGRFTISADNSKNTAYLQMNSLKPEDTAVYYCAFLVGPQGVDHGAFDVWGQGTLVTVSS
B12 displayed a Kd of 0.6 nM.

B13: variant 6-17 (Fc fusion)
VHH: EVQLVESGGGLVQPGGSLRLSCAASGNTGSTGYMGWFRQAPGKEREMVAGVINDGSTVYADSVKGRFTISADNSKNTAYLQMNSLKPEDTAVYYCARLATSHQDGTGYLFDYWGQGTLVTVSS
B13: binding was put at a Kd of 0.6 nM.

B14: variant 6-22 (Fc fusion)
VHH: EVQLVESGGGLVQPGGSLRLSCAASGRTFSEVVMGWFRQAPGKEREFVATIHSSGSTSYADSVKGRFTISADNSKNTAYLQMNSLKPEDTAVYYCVRVTSDYSMDSWGQGTLVTVSS
In the case of B14, the affinity, expressed as Kd, was 1.8 nM.

B15: variant 6-37 (Fc fusion)
VHH: EVQLVESGGGLVQPGGSLRLSCAASGHTFSTSWMGWFRQAPGKEREFVATINSLGGTNYADSVKGRFTISADNSKNTAYLQMNSLKPEDTAVYYCARVSSGDYGMDVWGQGTLVTVSS
Take B15: binding was characterised by a dissociation constant (Kd) of 0.7 nM.

B16: variant 6-40 (Fc fusion)
VHH: EVQLVESGGGLVQPGGSLRLSCAASGFTFSDYWMGWFRQAPGKERELVARVWWNGGSAYYADSVKGRFTISADNSKNTAYLQMNSLKPEDTAVYYCAREVLRQQVVLDYWGQGTLVTVSS
Consider B16, for which the affinity, expressed as Kd, was 1.9 nM.

B17: variant 6-36 (Fc fusion)
VHH: EVQLVESGGGLVQPGGSLRLSCAASGFDFSVSWMGWFRQAPGKEREFVTAITWSGDSTNYADSVKGRFTISADNSKNTAYLQMNSLKPEDTAVYYCASLLHTGPSGGNYFDYWGQGTLVTVSS
B17: the affinity, expressed as Kd, was 0.8 nM.

B18: variant 6-19 (Fc fusion)
VHH: EVQLVESGGGLVQPGGSLRLSCAASGSILSIAVMGWFRQAPGKEREFVAAISPSAVTTYYADSVKGRFTISADNSKNTAYLQMNSLKPEDTAVYYCAIGYYDSSGYFDYWGQGTLVTVSS
On to B18, for which the affinity, expressed as Kd, was 1 nM.

B19: variant 6-26 (Fc fusion)
VHH: EVQLVESGGGLVQPGGSLRLSCAASGDTFSTSWMGWFRQAPGKEREFVATINTGGGTNYADSVKGRFTISADNSKNTAYLQMNSLKPEDTAVYYCARVTTSFDYWGQGTLVTVSS
notes: VHH-Fc
With B19, binding was characterised by a dissociation constant (Kd) of 0.1 nM.

B20: variant 6-30 (Fc fusion)
VHH: EVQLVESGGGLVQPGGSLRLSCAASGFAFGDSWMGWFRQAPGKEREFVATINWSGVTAYADSVKGRFTISADNSKNTAYLQMNSLKPEDTAVYYCARADGYFDYWGQGTLVTVSS
Molecule B20 registered a Kd of 0.1 nM.

B21: variant 6-77 (Fc fusion)
VHH: EVQLVESGGGLVQPGGSLRLSCAASGFTFDRSWMGWFRQAPGKEREFVAAVTEGGTTSYADSVKGRFTISADNSKNTAYLQMNSLKPEDTAVYYCARADYDFDYWGQGTLVTVSS
Molecule B21 came in with a Kd of 3.5 nM.

B22: variant 6-4 (Fc fusion)
VHH: EVQLVESGGGLVQPGGSLRLSCAASGFTRDYYTMGWFRQAPGKEREFVAAISRSGSLTSYADSVKGRFTISADNSKNTAYLQMNSLKPEDTAVYYCANLAYYDSSGYYDYWGQGTLVTVSS
In the case of B22, the Kd is 0.5 nM.

B23: variant 6-6 (Fc fusion)
VHH: EVQLVESGGGLVQPGGSLRLSCAASGTTLDYYAMGWFRQAPGKERELVAAISWSGGSTAYADSVKGRFTISADNSKNTAYLQMNSLKPEDTAVYYCAREDYYDSSGYSWGQGTLVTVSS
Turning to B23, binding was put at a Kd of 67.7 nM.

B24: variant 6-28 (Fc fusion)
VHH: EVQLVESGGGLVQPGGSLRLSCAASGDTYGSYWMGWFRQAPGKEREFVATITSDDRTNYADSVKGRFTISADNSKNTAYLQMNSLKPEDTAVYYCARVTSSLSGMDVWGQGTLVTVSS
With B24, binding was characterised by a dissociation constant (Kd) of 0.4 nM.

B25: variant 6-38 (Fc fusion)
VHH: EVQLVESGGGLVQPGGSLRLSCAASGNTFSGGFMGWFRQAPGKEREFVAVISSLSSKSYADSVKGRFTISADNSKNTAYLQMNSLKPEDTAVYYCAKVDSGYDYWGQGTLVTVSS
B25 gave a Kd of 0.5 nM.

B26: variant 6-32 (Fc fusion)
VHH: EVQLVESGGGLVQPGGSLRLSCAASGFTLDYYDMGWFRQAPGKEREFVALISWSGGSTYYADSVKGRFTISADNSKNTAYLQMNSLKPEDTAVYYCATDFYGWGTRERDAFDIWGQGTLVTVSS
Molecule B26 registered a dissociation constant (Kd) of 0.1 nM.

B27: variant 6-41 (Fc fusion)
VHH: EVQLVESGGGLVQPGGSLRLSCAASGFTFSTSWMGWFRQAPGKEREFVASINEYGGRNYADSVKGRFTISADNSKNTAYLQMNSLKPEDTAVYYCAGLHYYYDSSGYNPTEYYGMDVWGQGTLVTVSS
Molecule B27 yielded a dissociation constant (Kd) of 1 nM.

B28: variant 6-20 (Fc fusion)
VHH: EVQLVESGGGLVQPGGSLRLSCAASGSTLPYHAMGWFRQAPGKEREFVAAITWNGASTSYADSVKGRFTISADNSKNTAYLQMNSLKPEDTAVYYCARDRYYDTSASYFESETWGQGTLVTVSS
notes: VHH-Fc
For the molecule B28, binding was put at a Kd of 0.3 nM.

B29: variant 6-31 (Fc fusion)
VHH: EVQLVESGGGLVQPGGSLRLSCAASGDTFSANRMGWFRQAPGKEREFVASITWSSANTYYADSVKGRFTISADNSKNTAYLQMNSLKPEDTAVYYCATFNWNDEGFDFWGQGTLVTVSS
For B29, the dissociation constant Kd stood at 20.7 nM.

B30: variant 6-10 (Fc fusion)
VHH: EVQLVESGGGLVQPGGSLRLSCAASGSIASIHAMGWFRQAPGKEREFVAAISRSGGFGSYADSVKGRFTISADNSKNTAYLQMNSLKPEDTAVYYCARDDKYYDSSGYPAYFQHWGQGTLVTVSS
Consider B30, for which the Kd stood at 0.6 nM.

B31: variant 6-43 (Fc fusion)
VHH: EVQLVESGGGLVQPGGSLRLSCAASGRTFSSYAMMGWFRQAPGKEREFVASVNWDASQINYADSVKGRFTISADNSKNTAYLQMNSLKPEDTAVYYCTTLGAVYFDSSGYHDYFDYWGQGTLVTVSS
Molecule B31 displayed a Kd of 0.7 nM.

B32: variant 6-24 (Fc fusion)
VHH: EVQLVESGGGLVQPGGSLRLSCAASGFTLDYYAMGWFRQAPGKEREFVAAINWSGDNTHYADSVKGRFTISADNSKNTAYLQMNSLKPEDTAVYYCARAPFYCTTTKCQDNYYYMDVWGQGTLVTVSS
In turn, B32 displayed a Kd of 0.2 nM.

B33: variant 6-23 (Fc fusion)
VHH: EVQLVESGGGLVQPGGSLRLSCAASGSIFSMNTMGWFRQAPGKEREFVALINRSGGGINYADSVKGRFTISADNSKNTAYLQMNSLKPEDTAVYYCVRLSSGYYDFDYWGQGTLVTVSS
Regarding B33, the affinity, expressed as Kd, was 0.3 nM.
